Measurements taken from article PMC9546566.

Biological target: CRY1(Human)-3×FLAG (human) (UniProt Q16526)
Test: co-IP

UniProt Q16526, sequence (Q16526 whole entry): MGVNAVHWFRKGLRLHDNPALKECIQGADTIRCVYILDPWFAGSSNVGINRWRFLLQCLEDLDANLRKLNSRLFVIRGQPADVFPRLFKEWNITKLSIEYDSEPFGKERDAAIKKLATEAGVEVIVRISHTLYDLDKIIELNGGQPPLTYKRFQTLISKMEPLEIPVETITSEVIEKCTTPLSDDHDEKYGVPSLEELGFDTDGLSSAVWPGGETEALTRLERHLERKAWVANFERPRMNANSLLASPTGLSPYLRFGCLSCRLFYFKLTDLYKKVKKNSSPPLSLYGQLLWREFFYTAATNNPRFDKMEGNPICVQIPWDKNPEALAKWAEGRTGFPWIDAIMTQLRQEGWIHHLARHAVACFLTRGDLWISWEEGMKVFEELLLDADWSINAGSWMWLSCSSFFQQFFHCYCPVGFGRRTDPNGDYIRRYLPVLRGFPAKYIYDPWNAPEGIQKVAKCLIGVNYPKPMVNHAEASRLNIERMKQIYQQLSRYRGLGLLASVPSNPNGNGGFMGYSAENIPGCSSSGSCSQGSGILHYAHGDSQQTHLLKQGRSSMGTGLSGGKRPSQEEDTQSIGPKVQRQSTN

PER2(Loris)-3×HA (natural protein)
ability to bind with CRY in co-IP (quantity and unit not named): 35.2
